{"source": "paper PMC3458034", "about": "“Structure and Flexibility of the C-Ring in the Electromotor of Rotary FoF1-ATPase of Pea Chloroplasts” (PLoS ONE, 2012)", "biological_target": "the molecule itself", "test": "crystal structure; c-ring from a native preparation in detergent; crystals grown in 100 mM Na-acetate pH 4.5, 50 mM MgCl2, 50 mM NaCl, 10 mM yttrium chloride, 14-24% PEG 550 MME; 3.4 Å"}
{"protein": "chloroplast ATP synthase subunit-c of the green pea (Pisum sativum), as the c-ring (natural protein, UniProt P08212 1-81, looked up, ATP synthase (CFoCF1) subunit c of the chloroplast, Pisum sativum; each monomer is printed as an 81-residue hairpin-shaped polypeptide (TM1 residues 4-41, loop 42-45, TM2 46-75); Native preparation, no tags; Homo-tetradecameric ring in the crystal; also called c-subunit; c14; source: purified from thylakoid membranes of P. sativum var; Alaska young leaves (DDM, PEG precipitation, sucrose …)) MNPLIAAASVIAAGLAVGLASIGPGVGQGTAAGQAVEGIARQPEAEDKIRGTLLLSLAFMEALTIYGLVVALALLFANPFV", "values": [{"measurement": "stoichiometry N", "result": 14}]}
